# Measurements as given in patent US20150191546A1 (University of Texas, published 2015).
# B1: Hu8F4-2 humanized 8F4 IgG1/kappa antibody (Hu8F4 VH and VL2) (antibody)
# heavy: not shown
# light: DIQMTQSPSSLSASVGDRVTITCKASQDVSTAVAWYQQKPGKAPKLLIYSTSYRYTGVPSRFSGSGSGTDFTFTISSLQPEDIATYYCQQHFITPPTFGGGTKVEIKRTVAAPSVFIFPPSDEQLKSGTASVVCLLNNFYPREAKVQWKVDNALQSGNSQESVTEQDSKDSTYSLSSTLTLSKADYEKHKVYACEVTHQGLSSPVTKSFNRGEC
# notes: VL2 has Asp instead of Val at position 70 of VL1; also called Hu2-8F4; Hu2
# B2: Hu8F4-1 humanized 8F4 IgG1/kappa antibody (Hu8F4 VH and VL1) (antibody, V domains shown)
# VH: EVQLVESGGGLVQPGGSLRLSCAASGFTFSGYGMSWVRQAPGKGLEWVATISSGGSYTYYPDSVKGRFTISRDNAKNSLYLQMNSLRAEDTAVYYCARHEGGYYGSSPAWFVYWGQGTMVTVSS
# VL: DIQMTQSPSSLSASVGDRVTITCKASQDVSTAVAWYQQKPGKAPKLLIYSTSYRYTGVPSRFSGSGSGTVFTFTISSLQPEDIATYYCQQHFITPPTFGGGTKVEIKR
# notes: Human IgG1/kappa; also called Hu1-8F4; Hu1
# B3: Hu8F4-2-AA humanized 8F4 IgG1-AA/kappa antibody (antibody)
# heavy: not shown
# light: B1 light
# notes: Hu8F4 VH and VL2 on human IgG1 with Leu234Ala and Leu235Ala (Eu numbering); Signal peptide may be included
# B4: 8F4 mouse monoclonal antibody (IgG2a-kappa, anti-PR1/HLA-A*0201) (antibody, V domains shown)
# VH: EVQLVESGGDLVKPGGSLKLSCAASGFTFSGYGMSWVRQTPDKRLEWVATISSGGSYTYYPDSVKGRFTISRDNAKNTLYLQMSSLKSEDTAMYYCARHEGGYYGSSPAWFVYWGQGTLVTLSA
# VL: DIVMTQSHKFMSTSVGDRVSITCKASQDVSTAVAWYQQKPGQSPKLLIYSTSYRYTGVPDRFTGSGSGTVFTFTINSVQAEDLAVYYCQQHFITPPTFGGGTKLEIK
# modifications: In the flow cytometry and confocal assays the antibody carried an Alexa Fluor 647 label; the letters do not carry it.
# notes: Mouse IgG2a-kappa from hybridoma; Used with Alexa-647 label in flow cytometry and confocal assays; also called mouse 8F4; 8F4-4
# B5: Ch8F4 chimeric 8F4 IgG1/kappa antibody (antibody, V domains shown)
# VH: B4 VH
# VL: DIVMTQSHKFMSTSVGDRVSITCKASQDVSTAVAWYQQKPGQSPKLLIYSTSYRYTGVPDRFTGSGSGTVFTFTINSVQAEDLAVYYCQQHFITPPTFGGGTKLEIKR
# notes: Mouse 8F4 VH/VL on human gamma-1 and kappa constant regions
# Experiments:
# [1] = target: T1, recombinant PR1/HLA-A*0201 monomer (human); experiment: ELISA, biotinylated PR1/HLA-A2 on streptavidin, anti-human kappa HRP
# T1 construct: Folded recombinant monomer; also called PR1/HLA-A2; PR-1/HLA-A2
# Procedure: An ELISA plate was first coated with 100 μl/well of 5 μg/ml streptavidin (Jackson ImmunoResearch, West Grove, Pa.) in PBS. After washing wells with Wash Buffer (PBS containing 0.05% Tween 20) and blocking with Block Buffer, 50 μl/well of 2 μg/ml biotinylated PR1/HLA-A2, which had been provided by Dr. Molldrem, was added. After 30 min incubation at room temperature, the ELISA plate was washed with Wash Buffer. […] After incubating the ELISA plate for 1 hr at room temperature and washing with Wash Buffer, bound antibodies were detected using 100 μl/well of 1/2,000-diluted HRP-conjugated goat anti-human kappa chain polyclonal antibody. After incubating for 30 min at room temperature and washing with Wash Buffer, color development was performed by adding 100 μl/well of ABTS substrate. Color development was stopped by adding 100 μl/well of 2% oxalic acid. Absorbance was read at 405 nm.
# [2] = target: T1, recombinant PR1/HLA-A*0201 monomer; experiment: ELISA on recombinant PR1/HLA-A2 monomer-coated plates; Hu8F4-2 (Hu2)
# Source text: (§1) The inventors used recombinant PR1/HLA-A2 monomer-coated plates to capture the antibody, and anti-human antibodies were used in a colorimetric assay to determine the bound fraction by optical density (OD).
# [3] = target: T1, recombinant PR1/HLA-A*0201 monomer; experiment: ELISA on PR1/HLA-A2 monomer-coated plate, anti-human detection [panel B]
# Source text: as §1
# [4] = target: T1, recombinant PR1/HLA-A*0201 monomer; experiment: ELISA on recombinant PR1/HLA-A2 monomer-coated plates; Hu8F4-1 (Hu1)
# Source text: as §1
# [5] = target: T2, PR1/HLA-A*0201 on the cell surface (human); experiment: flow cytometry, 8F4 staining of MDA-MB-231 cells after 24 h with P3
# T2 construct: also called PR1-pulsed T2 cells; PR1/HLA-A2 on HLA-A2+ AML blasts
# Procedure: (§2) Mean 6 SEM fold increase of the MFI of PR1/HLA-A2 versus unpulsed cells is shown from duplicate experiments. ANOVA followed by Tukey test was performed using Prism 5.0 software (*p=0.01, **p, 0.0001).
# [6] = target: T1, recombinant PR1/HLA-A*0201 monomer; experiment: SPR (Biacore), 8F4 immobilized/captured, soluble PR1/HLA-A*0201 as analyte
# [7] = target: T1, recombinant PR1/HLA-A*0201 monomer; experiment: SPR (BIAcore 3000), antibody captured on anti-mouse surface, peptide/HLA-A2 as analyte, 25 C; inset table, column KD (the text and the box under the plot round it to 9.9 nM)
# Procedure: The test antibodies were captured onto anti-mouse antibody-coated surfaces. The analyte, peptide/HLA-A2, was diluted to 100 nM and tested in duplicate for binding to the antibody-coated surfaces. The analysis was performed at 25 C using PBS, 0.005% Tween-20, 0.1 mg/ml BSA, pH 7.4 as the running buffer.
# [8] = target: T2, PR1/HLA-A*0201 on the cell surface; experiment: flow cytometry, 8F4 staining of MDA-MB-231 cells after 24 h with NE
# Procedure: as §2
Binder,EC50 [1],EC50 (read off the curve) [3],further results
B1,0.07 µg/mL,~0.008 µg/mL,Kd [2]: 7.8 nM
B2,0.05 µg/mL,~0.008 µg/mL,Kd [4]: 7.7 nM
B3,0.07 µg/mL,–,–
B4,–,–,fold increase in PR1/HLA-A2 (8F4 MFI) versus unpulsed cells [5]: 3 fold; Kd [6]: 9.9 nM; Kd [7]: 9.85 nM; fold increase in PR1/HLA-A2 (8F4 MFI) versus unpulsed cells [8]: 2.5 fold
B5,0.054 µg/mL,~0.008 µg/mL,–
